Source: patent US20250270295A1 (ALBERT LUDWIGS UNIVERSITAET FREIBURG, published 2025)
Positions count from the first letter of the chain named.

T1: gp68_ECD_7 (gp68 ΔO-glyc, 1-293 lacking 27-67aa) (HCMV strain AD169, UniProt P16739 65-292)
T1 sequence: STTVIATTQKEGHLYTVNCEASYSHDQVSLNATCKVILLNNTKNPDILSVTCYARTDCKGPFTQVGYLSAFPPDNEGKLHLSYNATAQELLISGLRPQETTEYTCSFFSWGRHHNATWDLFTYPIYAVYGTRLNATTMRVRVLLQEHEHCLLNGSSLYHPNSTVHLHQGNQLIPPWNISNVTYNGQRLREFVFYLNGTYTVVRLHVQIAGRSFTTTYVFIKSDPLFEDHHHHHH

T2: gp68_ECD_4a* (1-144aa) (HCMV strain AD169, UniProt P16739 24-144)
T2 construct: Shortened by a stop codon that arose in cloning, so a C-terminal tag is doubtful
T2 sequence: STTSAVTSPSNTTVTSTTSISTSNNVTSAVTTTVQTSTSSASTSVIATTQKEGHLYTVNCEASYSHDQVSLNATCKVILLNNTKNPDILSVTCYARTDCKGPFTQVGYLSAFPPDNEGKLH

T3: native vFcγR gp34 of HCMV AD169 (infected cells, virions) (HCMV strain AD169, UniProt P16809 24-234)
T3 construct: also called native HCMV gp34 protein; gp34/RL11
T3 sequence (looked up): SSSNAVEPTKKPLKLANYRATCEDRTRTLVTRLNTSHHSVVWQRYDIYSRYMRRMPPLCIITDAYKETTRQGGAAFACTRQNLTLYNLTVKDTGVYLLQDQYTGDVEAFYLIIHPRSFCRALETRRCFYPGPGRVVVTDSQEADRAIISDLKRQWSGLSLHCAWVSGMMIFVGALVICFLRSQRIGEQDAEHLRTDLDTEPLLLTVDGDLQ

T4: soluble gp34 wild type ectodomain, V5-His tagged (sgp34wt-V5-His) (HCMV strain AD169)
T4 construct: Entry holds signal peptide 1-23 (left out), ectodomain, V5 tag and His tag; Forms monomers, dimers and higher oligomers; also called sol gp34 wt; gp34 1-179
T4 chain: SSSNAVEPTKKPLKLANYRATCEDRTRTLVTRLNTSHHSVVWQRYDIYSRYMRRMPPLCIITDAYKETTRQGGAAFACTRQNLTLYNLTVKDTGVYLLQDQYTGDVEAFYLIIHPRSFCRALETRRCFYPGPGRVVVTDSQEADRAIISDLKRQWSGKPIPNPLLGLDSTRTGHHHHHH

T5: soluble human ICOSL ectodomain, V5-His tagged (sICOSL-V5His) (human, UniProt O75144 19-256)
T5 construct: extracellular domain; Control protein with the same tags as the vFcγRs
T5 sequence: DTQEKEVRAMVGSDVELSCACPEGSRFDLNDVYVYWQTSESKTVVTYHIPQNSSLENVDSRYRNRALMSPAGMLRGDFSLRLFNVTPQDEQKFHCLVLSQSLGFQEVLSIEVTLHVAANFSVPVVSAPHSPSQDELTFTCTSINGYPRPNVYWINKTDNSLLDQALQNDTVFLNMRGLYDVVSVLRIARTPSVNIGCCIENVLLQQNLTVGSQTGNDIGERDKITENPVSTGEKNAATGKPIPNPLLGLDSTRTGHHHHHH

T6: soluble gp34 ectodomain W65F, V5-His tagged (sgp34mtrp-V5-His) (HCMV strain AD169)
T6 construct: signal peptide 1-23 left out; V5 and His tags are in the entry; Forms only monomers and dimers; also called sol gp34mtrp; gp34 1-179 W65F
T6 chain: T4 chain with W42F

T7: gp34mtrp (W65F) on stably transduced HeLa cells (HCMV strain AD169, UniProt P16809 24-234)
T7 construct: whole, on cells; also called plasma membrane exposed gp34mtrp
T7 sequence: T3 sequence (looked up) with W42F

T8: gp68 on stably transduced HeLa cells (HCMV strain AD169, UniProt P16739 24-345)
T8 construct: whole, on cells; also called plasma membrane exposed gp68
T8 sequence: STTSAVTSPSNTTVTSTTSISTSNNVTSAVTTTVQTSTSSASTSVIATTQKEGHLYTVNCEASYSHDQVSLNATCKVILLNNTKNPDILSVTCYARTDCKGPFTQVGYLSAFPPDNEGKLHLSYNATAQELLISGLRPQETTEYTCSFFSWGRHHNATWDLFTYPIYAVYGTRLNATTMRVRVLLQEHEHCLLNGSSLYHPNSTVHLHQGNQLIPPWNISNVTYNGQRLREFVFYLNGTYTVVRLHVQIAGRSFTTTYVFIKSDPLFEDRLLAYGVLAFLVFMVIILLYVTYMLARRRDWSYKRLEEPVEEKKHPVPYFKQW

T9: gp34wt on stably transduced HeLa cells (HCMV strain AD169, UniProt P16809 24-234)
T9 construct: whole, on cells; also called plasma membrane exposed gp34wt
T9 sequence: T3 sequence (looked up)

B1: gp68.05 (antibody, V domains shown)
VH: QVKLEESGAELMKPGASVKISCTATGYTFSGYWIEWVKQRPGHGLEWIGEILPGSGGTNYNEKFKGKATFTADTSSNTAYMQLSSLTSEDSAVYYCARGIHYFGYYYFDYWGQGTTLTVSSAKTTPPSVY
VL: DIVLTQTPSSLSASLGDRVTISCRASQDISNYLNWYQLKPDGTVKLLIYYTSRLHSGVPSRFSGSGSGTDYSLTISNLEQEDIATYFCQQGNTLPPTFGGGTKLEIKRADAAPTVS
notes: mouse IgG1 hybridoma mAb; leader in entries; also called anti gp68 clone 68.05
B2: gp68.06 (antibody, V domains shown)
VH: B1 VH with E6Q
VL: B1 VL with T7S, S76N
notes: mouse IgG1 hybridoma mAb; leader in entries; also called anti gp68 clone 68.06
B3: gp68.03 (antibody, V domains shown)
VH: EVKLEESGPEVKKPGETVKISCKASGYTFTNYGMSWLRQAPGKGLKWMGWINTYTGEPTYADDFKGRFAFSLETSASTAYFQINNLKDEDTTTYFCARRAFGGLDYWGQGTSVTVFS
VL: DIVLTQTPLSLPVSLGDQASISCRSSQSIVHSNGNTYLEWYLQKPGQSPKVLIYKVSKRFSGVPDRFSGSGSETDFTLKISRVEAEDMGVYYCFQGSHVPLTFGAGTKLELKR
notes: mouse IgG1 hybridoma mAb; leader in entries; VH entry see recheck; also called anti gp68 clone 68.03
B4: gp68.01 (antibody, V domains shown)
VH: EVKLLESGPELVKPGSSVKISCKASGYSFADHIILWVKQSHGKSLEWIGNINPYSGNTIYNLNFKGKATLTVDKSSSTAYMQLNSLTSEDSAVYYCARIEGYYSMDYWGQGTSVTVSS
VL: DIVMTQTPLSLPVSLGDQASISCRSSQSIVHSNGNTYLEWYLQKPGQSPKVLIYKVSKRFSGVPDRFSGSGSGTDFTLKISRVEAEDMGVYYCFQGSHVPLTFGAGTKLELK
notes: mouse IgG1 hybridoma mAb; leader in entries
B5: gp68.02 (antibody, V domains shown)
VH: B4 VH with E6Q
VL: B4 VL with M4L
notes: as for B4
B6: gp34mtrp.03 (antibody, V domains shown)
VH: EVQLEESGTVLARPGASVKMSCKASGYTFTSYWMHWVKQRPGQGLEWIGAIYPGNSDTGYNQKFKGKARLTAVTSTSTAYLELSSLTDEDSAVYFCTRLGYGDYWGQGTTLTVSS
VL: DIVLTQTPSSMYASLGERVTITCKASQDINSYLTWFQQKPGKSPKTLIYRANRLVDGVPSRFSGSGSGQDYSLTINSLDYEDMGIYYCLQYDEFPPTFGGGTKLEIK
notes: mouse IgG1 hybridoma mAb; leader in entries; also called anti gp34 clone mtrp.03
B7: gp34mtrp.04 (antibody, V domains shown)
VH: B6 VH with Q3K, E5V, E6Q
VL: B6 VL with L4M
notes: mouse IgG1 hybridoma mAb; leader in entries; also called anti gp34 clone mtrp.04
B8: gp34mtrp.05 (antibody, V domains shown)
VH: B3 VH with E5L, E6Q, F116S
VL: B4 VL with T7S, H31Y, S32T, V51L, K58N, M88L, L101W, A105G, L111I
notes: mouse IgG1 hybridoma mAb; leader in entries; also called anti gp34 clone mtrp.05
B9: gp34mtrp.06 (antibody, V domains shown)
VH: B3 VH with K3Q, E5L, E6Q, D88N, F116S
VL: B4 VL with M4L, T7S, H31Y, S32T, V51L, K58N, M88L, L101W, A105G, L111I
notes: mouse IgG1 hybridoma mAb; leader in entries; also called anti gp34 clone mtrp.06
B10: gp34wt.12 (antibody, V domains shown)
VH: EVKLQESGPELVKPGASVKMSCKASGYTVTRSYIHWVKQRPGQGLEWIGWIYPGDGSTKYNEKFKGKTTLTVDKSSSTAYMLLSSLTSEDSAIYFCASFTTPVYWGQGTSVTVSS
VL: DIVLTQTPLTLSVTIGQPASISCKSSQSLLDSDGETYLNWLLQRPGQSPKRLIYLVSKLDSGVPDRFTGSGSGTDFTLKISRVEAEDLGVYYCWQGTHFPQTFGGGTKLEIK
notes: mouse IgG1 hybridoma mAb; leader in entries; also called anti gp34 clone wt.12

molecular target: T10, gp68_ECD_1 (1-201 aa) (HCMV strain AD169, UniProt P16739 24-201); assay: ELISA, coated supernatant
T10 construct: signal peptide 1-23 left out

Q: Does B1 bind?
A: no binding (tested: 1 µg/ml)

Q: Does B2 bind?
A: no binding (tested: 1 µg/ml)

Q: Does B3 bind?
A: no binding (tested: 1 µg/ml)

Q: Does B4 bind?
A: binds

Q: Does B5 bind?
A: binds

molecular target: T11, gp68_ECD_wt (HCMV strain AD169, UniProt P16739 24-292); assay: ELISA, coated supernatant
T11 construct: Called 'same antigen as used for immunization'; used as HEK293T supernatant; also called gp68wt extracellular domain

Q: Does B1 bind?
A: binds

Q: Does B2 bind?
A: binds

Q: Does B4 bind?
A: binds

Q: Does B5 bind?
A: binds

molecular target: gp68_ECD_4b (1-152) (HCMV strain AD169, UniProt P16739 24-152); assay: ELISA, coated supernatant

Q: Does B1 bind?
A: no binding (tested: 1 µg/ml)

Q: Does B2 bind?
A: no binding (tested: 1 µg/ml)

Q: Does B3 bind?
A: no binding (tested: 1 µg/ml)

molecular target: T1, gp68_ECD_7 (gp68 ΔO-glyc, 1-293 lacking …); assay: ELISA, coated supernatant

Q: Does B1 bind?
A: binds

Q: Does B2 bind?
A: binds

Q: Does B4 bind?
A: binds

Q: Does B5 bind?
A: binds

molecular target: T2, gp68_ECD_4a* (1-144aa); assay: ELISA, coated supernatant

Q: Does B1 bind?
A: no binding (tested: 1 µg/ml)

Q: Does B2 bind?
A: no binding (tested: 1 µg/ml)

Q: Does B3 bind?
A: no binding (tested: 1 µg/ml)

molecular target: T3, native vFcγR gp34 of HCMV AD169 …; assay: IP from infected cells; Fc-mediated background per the filing
Method: Finally, anti-vFcγR gp68 mAbs were used for immunoprecipitation experiments. MRC5 fibroblasts were infected with HCMV AD169wt strain or a virus mutant lacking vFcγR gp68 (Δgp68) for 4 days with MOI 3. Infected cells were metabolically labeled with ³⁵S for 2 hours at 37° C., washed and lysed using NP40-lysis buffer. Lysates were incubated with indicated mAbs or human IgG Fc-fragment to pulldown vFcγR gp68 specifically or both HCMV-encoded vFcγRs gp34, gp68 using human IgG-Fc-fragment to precipitated Fc-binding proteins. Samples were deglycosylated by EndoH and separated on SDS-page gradient gel.
MRC5 fibroblast were infected with MOI 2. Four days post infection cells were metabolically labelled and following lysates were incubated with indicated anti-gp68 mAbs or human IgG-Fc-fragment for precipitation of vFcγR gp68.

Q: Does B1 bind?
A: binds

Q: Does B2 bind?
A: binds

Molecular target: T4, soluble gp34 wild type ectodomain, …
Assay: sgp34wt pre-incubated with mAb, ELISA on FcRn
Method: Furthermore, the gp34wt and FcRn interaction was investigated whereby various anti-gp34 mAbs were analyzed and their potential to block this interaction was identified. Experiments were performed as described before for IgG-blocking ELISA, but this time using immobilized FcRn as a novel gp34-ligand.
In addition, binding of sgp34wt to immobilized FcRn in absence of any mAb is depicted.

Q: For B6, which “percent blocking of gp34 FcRn-binding” value is on record?
A: ≤ 50%

Q: Which “percent blocking of gp34 FcRn-binding” value does the source give for B7 here?
A: ≤ 50%

Q: Which “percent blocking of gp34 FcRn-binding” value does the source give for B8 here?
A: ≤ 50%

Q: B9 was tested. Which “percent blocking of gp34 FcRn-binding” value did it give?
A: ≤ 50%

molecular target: T5, soluble human ICOSL ectodomain, V5-His …; assay: western blot

Q: Does B10 bind?
A: no binding

Q: Does B1 bind?
A: no binding

Q: Does B2 bind?
A: no binding

Q: Does B3 bind?
A: no binding

Q: Does B4 bind?
A: no binding

Q: Does B5 bind?
A: no binding

Molecular target: T6, soluble gp34 ectodomain W65F, V5-His …
Assay: ELISA mtrp

Q: Does B10 bind?
A: no binding

Q: Does B6 bind?
A: binds

Q: Does B7 bind?
A: binds

Q: Does B8 bind?
A: binds

Q: Does B9 bind?
A: binds

Molecular target: T4, soluble gp34 wild type ectodomain, …
Assay: blocking of sgp34wt binding to immobilized human IgG, ELISA
Method: FIG. 44: IgG blocking ability by anti-gp34mtrp mAbs. vFcγR gp34 is an HCMV encoded IgG-Fc-binding. Anti-gp34mtrp-specific mAbs (in titration) were pre-incubated with recombinant, sgp34wt (constant amount 1 μg/ml) and added to IgG-immobilized ELISA plates. […] Dose-dependent potential of mAbs used for blocking is indicated. Effect by non-specific mouse IgG isotype IgG1 is shown. In addition, binding of sgp34wt to immobilized IgG in absence of any mAb is depicted.
To test if anti-gp34wt specific mAbs can interfere with IgG-binding ability of gp34 and human IgG. Therefore, recombinant, sgp34wt was pre-incubated with indicated anti-gp34wt specific mAbs, mouse IgG isotype or PBS only. Next, antibody bound sgp34wt was incubated on IgG-immobilized ELISA plates.
Anti-gp34wt-specific mAbs (in titration) were pre-incubated with recombinant, sgp34wt (constant amount 1 μg/ml) and added to IgG-immobilized ELISA plates. […] Dose-dependent potential of mAbs used for blocking is indicated. […] In addition, binding of sgp34wt to immobilized IgG in absence of any mAb is depicted.

Q: With B10 as the binder, how does the IC50 read?
A: 0.07 µg/mL

Q: Which IC50 does the source give for B6 here?
A: 0.152 µg/mL

Q: How did the IC50 turn out when B7 was run?
A: 0.147 µg/mL

Q: Which IC50 does the source give for B8 here?
A: 5.34 µg/mL

Q: B9 was tested. Which IC50 did it give?
A: 4.46 µg/mL

molecular target: T7, gp34mtrp (W65F) on stably transduced …; assay: flow cytometry, HeLa

Q: Does B10 bind?
A: no binding (tested: 1 µg/ml)

molecular target: T8, gp68 on stably transduced HeLa cells; assay: flow cytometry, HeLa, 1 µg/ml

Q: Does B4 bind?
A: binds

Q: Does B5 bind?
A: binds

molecular target: T9, gp34wt on stably transduced HeLa cells; assay: flow cytometry, HeLa, 1 µg/ml

Q: Does B10 bind?
A: binds

Molecular target: T4, soluble gp34 wild type ectodomain, …
Assay: sgp34wt pre-incubated with mAb, ELISA on CRP
From the text: In addition, binding of sgp34wt to immobilized CRP in absence of any mAb is depicted.

Q: How did the “percent blocking of gp34-CRP-binding” value turn out when B6 was run?
A: ~50%

Q: How did the “percent blocking of gp34-CRP-binding” value turn out when B7 was run?
A: ~50%

Q: For B8, which “percent blocking of gp34-CRP-binding” value is on record?
A: ~50%

Q: With B9 as the binder, how does the “percent blocking of gp34-CRP-binding” value read?
A: ~50%

molecular target: T12, soluble gp68 ectodomain, V5-His tagged (sgp68-V5-His) (HCMV strain AD169, UniProt P16739 24-292); assay: ELISA
T12 construct: V5 and His tags are in the entry; also called sol gp68; sgp68wt

Q: Does B1 bind?
A: binds

Q: Does B2 bind?
A: binds

Q: Does B4 bind?
A: binds

Q: Does B5 bind?
A: binds
